Drawing on publication PMC3968367, this text covers pKa and blocking effect on the K+ current for three substances.

One data set has as its target His28 (UniProt position 50, AFGRAHGKCMN). The settings on record: free toxin (inferred); cited from earlier work.
Data set [1] concerns the target Shaker IR (Drosophila) (UniProt P08510).
In data set [2] the target is rKv1.2 (rat) (UniProt P63142).
Data set [3] concerns the target rKv1.3 (rat) (UniProt P15384).
The target in the next data set is rKv1.1 (rat) (UniProt P10499).
Chain of rKv1.1 (rat) (P10499 whole entry): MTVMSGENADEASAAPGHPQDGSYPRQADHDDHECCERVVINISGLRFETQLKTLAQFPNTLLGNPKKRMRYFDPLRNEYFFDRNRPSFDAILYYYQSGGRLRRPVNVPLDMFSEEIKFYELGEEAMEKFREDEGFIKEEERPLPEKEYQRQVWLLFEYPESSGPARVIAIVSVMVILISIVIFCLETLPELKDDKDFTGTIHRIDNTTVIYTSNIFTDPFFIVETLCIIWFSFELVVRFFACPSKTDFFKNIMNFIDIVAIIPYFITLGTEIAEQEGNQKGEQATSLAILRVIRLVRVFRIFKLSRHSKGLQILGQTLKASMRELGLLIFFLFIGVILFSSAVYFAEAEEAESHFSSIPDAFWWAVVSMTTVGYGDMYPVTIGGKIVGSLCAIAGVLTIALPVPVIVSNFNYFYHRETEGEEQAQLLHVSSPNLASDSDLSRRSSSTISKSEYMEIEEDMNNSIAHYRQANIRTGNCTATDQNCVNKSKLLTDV
Data set [4] deals with Shaker IR (Drosophila) (UniProt P08510). This is another data set of the same source.
Chain of Shaker IR (Drosophila) (P08510 whole entry): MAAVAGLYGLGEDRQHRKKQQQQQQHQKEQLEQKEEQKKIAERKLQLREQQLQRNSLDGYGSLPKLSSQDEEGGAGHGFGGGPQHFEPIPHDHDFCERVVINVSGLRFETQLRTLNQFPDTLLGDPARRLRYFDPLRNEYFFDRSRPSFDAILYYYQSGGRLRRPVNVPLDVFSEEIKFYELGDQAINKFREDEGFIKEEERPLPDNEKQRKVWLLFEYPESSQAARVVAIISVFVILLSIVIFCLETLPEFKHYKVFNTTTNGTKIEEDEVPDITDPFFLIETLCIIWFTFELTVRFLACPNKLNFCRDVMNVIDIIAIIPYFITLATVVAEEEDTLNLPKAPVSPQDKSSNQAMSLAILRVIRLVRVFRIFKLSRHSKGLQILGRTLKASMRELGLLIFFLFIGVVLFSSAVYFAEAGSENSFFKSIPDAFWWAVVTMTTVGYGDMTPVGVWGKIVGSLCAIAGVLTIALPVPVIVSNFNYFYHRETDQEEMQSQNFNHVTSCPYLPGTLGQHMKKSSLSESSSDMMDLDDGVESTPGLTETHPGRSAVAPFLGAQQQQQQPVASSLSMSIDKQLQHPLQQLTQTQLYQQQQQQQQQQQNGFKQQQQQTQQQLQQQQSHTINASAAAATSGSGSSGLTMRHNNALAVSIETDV
Data set [5] concerns the target rKv1.2 (rat) (UniProt P63142). This is another data set of the same source.
A further data set deals with rKv1.6 (rat) (UniProt P17659).
Chain of rKv1.6 (rat) (P17659 whole entry): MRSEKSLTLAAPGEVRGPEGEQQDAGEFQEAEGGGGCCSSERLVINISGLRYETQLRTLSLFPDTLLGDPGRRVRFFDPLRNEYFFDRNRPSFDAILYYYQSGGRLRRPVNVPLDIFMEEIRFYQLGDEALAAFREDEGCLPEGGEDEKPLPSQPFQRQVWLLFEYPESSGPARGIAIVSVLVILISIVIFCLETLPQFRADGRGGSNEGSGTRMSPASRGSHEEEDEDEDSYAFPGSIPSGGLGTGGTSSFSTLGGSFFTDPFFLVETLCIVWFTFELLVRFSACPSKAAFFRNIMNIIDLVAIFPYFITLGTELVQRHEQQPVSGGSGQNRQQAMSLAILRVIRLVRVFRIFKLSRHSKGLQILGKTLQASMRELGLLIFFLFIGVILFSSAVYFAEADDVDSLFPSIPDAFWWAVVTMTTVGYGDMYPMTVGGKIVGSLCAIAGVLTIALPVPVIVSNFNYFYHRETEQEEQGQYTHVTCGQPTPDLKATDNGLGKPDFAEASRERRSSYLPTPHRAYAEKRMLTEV
Data set [6] deals with rKv1.3 (rat) (UniProt P15384). This is another data set of the same source.
Chain of rKv1.3 (rat) (P15384 whole entry): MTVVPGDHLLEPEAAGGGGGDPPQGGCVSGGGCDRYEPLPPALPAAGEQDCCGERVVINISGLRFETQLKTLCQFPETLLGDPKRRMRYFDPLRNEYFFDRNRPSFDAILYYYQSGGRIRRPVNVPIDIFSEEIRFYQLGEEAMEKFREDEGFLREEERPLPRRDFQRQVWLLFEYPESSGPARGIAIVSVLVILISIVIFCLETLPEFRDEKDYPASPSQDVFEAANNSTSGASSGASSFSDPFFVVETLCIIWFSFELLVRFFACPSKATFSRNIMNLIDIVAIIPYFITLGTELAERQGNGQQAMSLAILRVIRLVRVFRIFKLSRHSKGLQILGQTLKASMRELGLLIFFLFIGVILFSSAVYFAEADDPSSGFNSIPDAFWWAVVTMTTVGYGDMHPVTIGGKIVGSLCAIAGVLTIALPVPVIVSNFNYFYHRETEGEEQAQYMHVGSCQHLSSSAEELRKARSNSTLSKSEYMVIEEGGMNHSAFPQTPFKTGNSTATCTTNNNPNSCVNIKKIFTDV

For orientation: pKa means the pH at which an ionisable group is half protonated.

Chain of rKv1.2 (rat) (P63142 whole entry): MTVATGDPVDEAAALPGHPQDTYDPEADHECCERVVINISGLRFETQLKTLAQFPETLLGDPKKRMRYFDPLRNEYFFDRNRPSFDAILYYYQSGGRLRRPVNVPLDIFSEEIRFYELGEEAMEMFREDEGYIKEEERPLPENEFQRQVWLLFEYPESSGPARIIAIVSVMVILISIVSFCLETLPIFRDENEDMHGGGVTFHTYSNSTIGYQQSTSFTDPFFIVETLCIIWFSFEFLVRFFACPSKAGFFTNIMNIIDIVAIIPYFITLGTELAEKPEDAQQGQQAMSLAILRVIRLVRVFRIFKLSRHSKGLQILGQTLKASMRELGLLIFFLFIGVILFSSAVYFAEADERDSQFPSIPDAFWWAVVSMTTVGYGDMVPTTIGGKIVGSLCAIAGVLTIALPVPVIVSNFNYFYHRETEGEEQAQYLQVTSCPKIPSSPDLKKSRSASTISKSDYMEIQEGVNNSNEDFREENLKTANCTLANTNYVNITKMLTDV

Take “Ts6 (alpha-KTx12.1, TsTX-IV, butantoxin) (Tityus serrulatus)”: the pKa with His28 was 5.2.

Turning to “Ts6 (from UniProt P59936 23-62) (peptide)”, the blocking effect on the K+ current at 1 µM Ts6, two-microelectrode voltage clamp on Xenopus oocytes worked out at 79% with Shaker IR (Drosophila) [1], 86% in the data set with rKv1.2 (rat) [2] and 98% with rKv1.3 (rat) [3].

For “Ts7 (from UniProt P46114 23-59) (peptide)”, the blocking effect on the K+ current at 1 µM Ts7, two-microelectrode voltage clamp on Xenopus oocytes with rKv1.1 (rat) amounted to 85%; in the data set with Shaker IR (Drosophila) [4], 97%; with rKv1.2 (rat) [5] it was 91%; in the data set with rKv1.6 (rat), 94%; in the data set with rKv1.3 (rat) [6] it was 89%.
